Data as given in PMC2919099.

Target: T1, DRH-3 (Caenorhabditis elegans (N2), UniProt Q93413 1-1119)
T1 sequence: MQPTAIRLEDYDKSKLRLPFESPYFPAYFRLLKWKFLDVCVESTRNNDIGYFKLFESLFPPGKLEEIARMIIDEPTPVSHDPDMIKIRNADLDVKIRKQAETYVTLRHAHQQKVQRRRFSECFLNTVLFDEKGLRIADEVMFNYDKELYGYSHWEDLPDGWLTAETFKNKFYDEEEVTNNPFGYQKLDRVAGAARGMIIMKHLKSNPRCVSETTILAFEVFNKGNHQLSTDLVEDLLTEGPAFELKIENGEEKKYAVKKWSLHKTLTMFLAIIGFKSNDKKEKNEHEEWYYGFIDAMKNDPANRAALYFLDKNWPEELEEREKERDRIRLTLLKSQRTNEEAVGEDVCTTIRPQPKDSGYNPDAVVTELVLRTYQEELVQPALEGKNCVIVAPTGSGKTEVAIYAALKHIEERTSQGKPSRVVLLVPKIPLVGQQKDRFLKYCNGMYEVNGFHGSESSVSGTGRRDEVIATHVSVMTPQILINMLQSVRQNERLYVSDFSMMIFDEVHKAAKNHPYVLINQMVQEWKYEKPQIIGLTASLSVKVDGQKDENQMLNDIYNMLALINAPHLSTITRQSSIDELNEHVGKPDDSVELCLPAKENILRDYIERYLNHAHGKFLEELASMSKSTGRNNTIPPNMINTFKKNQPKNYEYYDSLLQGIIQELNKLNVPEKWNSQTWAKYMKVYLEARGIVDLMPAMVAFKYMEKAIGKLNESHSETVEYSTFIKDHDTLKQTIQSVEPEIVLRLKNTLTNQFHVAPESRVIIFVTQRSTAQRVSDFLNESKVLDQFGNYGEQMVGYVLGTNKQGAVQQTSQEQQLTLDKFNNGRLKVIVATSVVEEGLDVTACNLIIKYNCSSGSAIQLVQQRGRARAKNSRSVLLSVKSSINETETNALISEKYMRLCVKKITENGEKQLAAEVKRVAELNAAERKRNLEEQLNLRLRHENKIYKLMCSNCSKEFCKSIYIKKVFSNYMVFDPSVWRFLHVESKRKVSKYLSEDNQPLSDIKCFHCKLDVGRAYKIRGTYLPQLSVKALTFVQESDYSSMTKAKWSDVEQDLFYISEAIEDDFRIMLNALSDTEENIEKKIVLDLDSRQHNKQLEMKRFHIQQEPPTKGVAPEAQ
Experiment: EMSA

B1: ds25 RNA (25 bp) (dsRNA)
RNA 1: GGGUAUAGACUGACUAGGAUCUCCC
RNA 2: GGGAGAUCCUAGUCAGUCUAUACCC
  Kd: 11 nM
